Residue numbers refer to the chain shown, from its start. Names may count otherwise. “And” between values parts separate entries of the source, which are not always exact repeats. Identical values can stand only once. Values belong to the binder of their own block, whether it stands above or below them.
Columns and labels:
[1] = target: T1, monovalent hVISTA-ECD (human VISTA extracellular domain with His tail) (human, UniProt Q9H7M9 33-193); assay: SPR, pH 6.0
T1 construct: analyte flowed over captured antibody; also called huVISTA-His
Experimental: (§1) Binding of several preparations of each of the '029 progeny clones and of the parent '029 antibodies, formatted as IgG1.3 antibodies, to human VISTA at pH 6.0 and 7.4 was measured by Surface plasmon resonance (SPR). SPR analysis was performed to measure koff and KD binding affinity measurements for VISTA Abs at acidic and neutral pHs using a Biacore® T100 instrument (GE Healthcare). Protein A (ThermoFisher Scientific catalog #21181) was diluted to 20 ug/ml in 10 mM sodium acetate pH 4.5 and immobilized onto flow cells of a CM5 biosensor following the manufacturer's amine coupling protocol (GE Healthcare), targeting 2,000 RU immobilization density of Protein A per flow cell. SPR experiments were conducted at 37° C. using PBST (137 mM sodium chloride, 2.7 mM potassium chloride, 10 mM phosphate buffer, 0.05% Tween® 20) running buffer at pH 7.4 and 6.0. Antibodies were diluted to 25 nM in PBST pH 7.4, and were captured across active biosensor flow cells at 5 ul/min for 60 seconds. […] Two 15 second injections of 10 mM glycine pH 1.5 were used to regenerate the Protein A capture surface between assay cycles. Rate constants ka (kₒₙ) and kd (koff) were derived from reference flow cell and 0 nM blank-subtracted sensorgrams, and were fit to a 1:1 binding model in Biacore® T200 Evaluation Software v.2.0. The affinity constant, KD was calculated as the ratio of rate constants koff/kₒₙ for each VISTA antibody.

[2] = target: T1, monovalent hVISTA-ECD (human VISTA …); assay: SPR
Experimental: as §1, with “antibody. […]” for “antibody.”

[3] = target: T1, monovalent hVISTA-ECD (human VISTA …); assay: SPR; remark: listed apart in the source
Experimental: as §1

[4] = target: T1, monovalent hVISTA-ECD (human VISTA …); assay: SPR, pH 7.4
Experimental: as §1

[5] = target: T1, monovalent hVISTA-ECD (human VISTA …); assay: SPR, pH 6.0; remark: listed apart in the source
Experimental: as §1, with “antibody. […]” for “antibody.”

[6] = target: T1, monovalent hVISTA-ECD (human VISTA …); assay: SPR, pH 7.4; remark: listed apart in the source
Experimental: as §1, with “antibody. […]” for “antibody.”

[7] = target: T1, monovalent hVISTA-ECD (human VISTA …); assay: SPR, pH 6.0; remark: listed apart in the source
Experimental: as §1
(§2) This initial campaign led to pH-independent VISTA.4 variants with near equivalent koff at pH 6 and pH 7. In order to obtain an antibody that binds to hVISTA with high affinity at pH 6.0 and low affinity at pH 7.0, a new library based on consensus sequence of pH-independent VISTA.4 variants was designed and constructed, with amino acid residues in the loops substituted for charge amino acid residues (see Example 9), and screened via yeast surface display (see Example 9). The library was analyzed as previously described (see Example 9) and selected variants were reformatted as IgG1.3 for further analysis (Tables 26 and 27). SPR analysis was conducted on these variants using the conditions previously described in Example 9.

[8] = target: T1, monovalent hVISTA-ECD (human VISTA …); assay: SPR, pH 7.4; remark: listed apart in the source
Experimental: as §1, §2

[9] = target: T1, monovalent hVISTA-ECD (human VISTA …); assay: SPR, pH 6.0, average
Experimental: as §1, with “antibody. […]” for “antibody.”

[10] = target: T1, monovalent hVISTA-ECD (human VISTA …); assay: SPR, pH 7.4, average
Experimental: as §1
Some of the VISTA.4 mutants described above and new mutants were tested for binding to hVISTA, according to the methods described in Example 9. […] Antibody 41F11_VH_T28P/Y50W/S55E/D95H/L96E/P97E/Y100E; VK_A64G (P1-070976) is the only VISTA.4 derivative that is pH selective.

B1: P1-061528 (41F11 NGS mut VK_A64G/R91A) (antibody, V domains shown)
VH: QVQLVESGGGLVKPGGSLRLSCAASGFTFSDYYMSWIRQAPGKGLEWVSYISNSGSPIYYADSVKGRFTISRDNAKNSLYLQMNSLRAEDTAVYYCARDLPGWYFDLWGRGTLVTVSS
VL: EIVLTQSPATLSLSPGERATLSCRASQSVSSYLAWYQQKPGQAPRLLIYDASNRATGIPARFSGSGSGTDFTLTISSLEPEDFAVYYCQQANNWPRTFGQGTKVEIK
notes: also called P1-061528-2
Kd [1]: 4.7 nM
kd improvement vs parent [1]: 51.4 fold
koff [1]: 0.0021 s⁻¹
kon [1]: 450000 M⁻¹ s⁻¹
KD ratio (pH 7.4/pH 6.0) [2]: 7.88
pH 6.0/7.4 KD [3]: 3.3
pH 6.0/7.4 kd [3]: 12
Kd [4]: 1.4 nM
kd improvement vs parent [4]: 5.1 fold
koff [4]: 0.00017 s⁻¹
kon [4]: 120000 M⁻¹ s⁻¹
Kd [5]: 3.86 nM
koff [5]: 0.00237 s⁻¹
kon [5]: 616000 M⁻¹ s⁻¹
Kd [6]: 30.4 nM
koff [6]: 0.00019 s⁻¹
kon [6]: 6260 M⁻¹ s⁻¹

B3: P1-064510 (41F11_Vk_A25E/V29D/A64G/R91T) (antibody, V domains shown)
VH: B1 VH
VL: B1 VL with A25E, V29D, A91T
notes: also called P1-064510-1
Kd [1]: 2.6 nM
kd improvement vs parent [1]: 35 fold
koff [1]: 0.0031 s⁻¹
kon [1]: 1.2e+06 M⁻¹ s⁻¹
KD ratio (pH 7.4/pH 6.0) [2]: 33.8
pH 6.0/7.4 KD [3]: 0.6
pH 6.0/7.4 kd [3]: 4.8
Kd [4]: 4.1 nM
kd improvement vs parent [4]: 1.4 fold
koff [4]: 0.00064 s⁻¹
kon [4]: 150000 M⁻¹ s⁻¹
Kd [7]: 4.8 nM
koff [7]: 0.0036 s⁻¹
kon [7]: 750000 M⁻¹ s⁻¹
Kd [8]: 3.4 nM
koff [8]: 0.00039 s⁻¹
kon [8]: 110000 M⁻¹ s⁻¹
Kd [5]: 2.51 nM
koff [5]: 0.00312 s⁻¹
kon [5]: 1.24e+06 M⁻¹ s⁻¹
Kd [6]: 84.8 nM
koff [6]: 0.000527 s⁻¹
kon [6]: 6220 M⁻¹ s⁻¹

B4: P1-064391 (41F11_HC_Mutant: D31E/Y50W/S55E/Y100E 41F11_LC_Mutant: V29D/A64G/R91T) (antibody, V domains shown)
VH: B1 VH with D31E, Y50W, S56E, Y104E
VL: B1 VL with V29D, A91T
notes: Kabat positions; also called P1-064391-1
Kd [1]: 6.4 nM
kd improvement vs parent [1]: 3.3 fold
koff [1]: 0.033 s⁻¹
kon [1]: 5.1e+06 M⁻¹ s⁻¹
pH 6.0/7.4 KD [3]: 0.2
pH 6.0/7.4 kd [3]: 2.1
Kd [4]: 37 nM
kd improvement vs parent [4]: 0.1 fold
koff [4]: 0.016 s⁻¹
kon [4]: 430000 M⁻¹ s⁻¹
Kd [7]: 10 nM
koff [7]: 0.027 s⁻¹
kon [7]: 2.7e+06 M⁻¹ s⁻¹
Kd [8]: 31 nM
koff [8]: 0.019 s⁻¹
kon [8]: 630000 M⁻¹ s⁻¹

B7: P1-071799 (P1-070976_H95D) (antibody, human IgG1, kappa, V domains shown)
VH: B1 VH with T28P, Y50W, S56E, L100E, P101E, Y104E
VL: EIVLTQSPATLSLSPGERATLSCRASQSVSSYLAWYQQKPGQAPRLLIYDASNRATGIPARFSGSGSGTDFTLTISSLEPEDFAVYYCQQRNNWPRTFGQGTKVEIKR
notes: IgG1.3
Kd [9]: 15 nM
koff [9]: 0.027 s⁻¹
kon [9]: 1.7e+06 M⁻¹ s⁻¹

B9: P1-071801 (P1-070976_E97P) (antibody, human IgG1, kappa, V domains shown)
VH: B1 VH with T28P, Y50W, S56E, D99H, L100E, Y104E
VL: B7 VL
notes: IgG1.3
Kd [10]: 21 nM
koff [10]: 0.00061 s⁻¹
kon [10]: 29000 M⁻¹ s⁻¹
Kd [9]: 3.5 nM
koff [9]: 0.0016 s⁻¹
kon [9]: 460000 M⁻¹ s⁻¹

The remaining binders from weak to strong by Kd [1], led by results:

Kd [1]: 22 nM
kd improvement vs parent [1]: 8.2 fold
koff [1]: 0.013 s⁻¹
kon [1]: 600000 M⁻¹ s⁻¹
pH 6.0/7.4 KD [3]: 0.3
pH 6.0/7.4 kd [3]: 4
Kd [4]: 75 nM
kd improvement vs parent [4]: 0.3 fold
koff [4]: 0.0032 s⁻¹
kon [4]: 43000 M⁻¹ s⁻¹
Kd [5]: 34.8 nM and 31.4 nM
koff [5]: 0.00726 s⁻¹ and 0.00818 s⁻¹
kon [5]: 209000 M⁻¹ s⁻¹ and 260000 M⁻¹ s⁻¹
koff [6]: 0.00266 s⁻¹ and 0.0023 s⁻¹
B8: P1-064490 (41F11_VH_F27EY50EL96E) (antibody, V domains shown)
VH: B1 VH with F27E, Y50E, L100E
VL: B1 VL with G64A, A91R
notes: Kabat positions; also called P1-064490-1; P1-064490-2

Kd [1]: 1.8 nM
kd improvement vs parent [1]: 12.4 fold
koff [1]: 0.0086 s⁻¹
kon [1]: 4.8e+06 M⁻¹ s⁻¹
pH 6.0/7.4 KD [3]: 0.1
pH 6.0/7.4 kd [3]: 1.2
Kd [4]: 15 nM
kd improvement vs parent [4]: 0.1 fold
koff [4]: 0.007 s⁻¹
kon [4]: 470000 M⁻¹ s⁻¹
Kd [7]: 1.6 nM
koff [7]: 0.012 s⁻¹
kon [7]: 7.7e+06 M⁻¹ s⁻¹
Kd [8]: 11 nM
koff [8]: 0.0078 s⁻¹
kon [8]: 770000 M⁻¹ s⁻¹
B6: P1-064392 (41F11_HC_Mutant: D31E/Y50W/S55E/Y100E 41F11_LC_Mutant: V29D/A64G/Q89E/R91T) (antibody, V domains shown)
VH: B1 VH with D31E, Y50W, S56E, Y104E
VL: B1 VL with V29D, Q89E, A91T
notes: Kabat positions; also called P1-064392-1

Kd [1]: 0.25 nM
kd improvement vs parent [1]: 136 fold
koff [1]: 0.00079 s⁻¹
kon [1]: 3.1e+06 M⁻¹ s⁻¹
pH 6.0/7.4 KD [3]: 0.9
pH 6.0/7.4 kd [3]: 3.9
Kd [4]: 0.27 nM
kd improvement vs parent [4]: 4.3 fold
koff [4]: 0.0002 s⁻¹
kon [4]: 770000 M⁻¹ s⁻¹
Kd [5]: 0.356 nM and 0.435 nM
koff [5]: 0.00124 s⁻¹ and 0.0012 s⁻¹
kon [5]: 3.47e+06 M⁻¹ s⁻¹ and 2.77e+06 M⁻¹ s⁻¹
Kd [6]: 0.365 nM and 0.32 nM
koff [6]: 0.000178 s⁻¹ and 0.000141 s⁻¹
kon [6]: 488000 M⁻¹ s⁻¹ and 441000 M⁻¹ s⁻¹
B10: P1-063125 (41F11_HC_Mutant: T28P/Y50W/S55E/Y100E) (antibody, V domains shown)
VH: B1 VH with T28P, Y50W, S56E, Y104E
VL: B1 VL with G64A, A91R
notes: Kabat positions; also called P1-063125-5

Kd [1]: 0.13 nM
kd improvement vs parent [1]: 233 fold
koff [1]: 0.00046 s⁻¹
kon [1]: 3.6e+06 M⁻¹ s⁻¹
pH 6.0/7.4 KD [3]: 0.8
pH 6.0/7.4 kd [3]: 3.9
Kd [4]: 0.15 nM
kd improvement vs parent [4]: 7.4 fold
koff [4]: 0.00012 s⁻¹
kon [4]: 780000 M⁻¹ s⁻¹
Kd [5]: 0.139 nM and 0.223 nM
koff [5]: 0.00114 s⁻¹ and 0.000909 s⁻¹
kon [5]: 8.19e+06 M⁻¹ s⁻¹ and 4.07e+06 M⁻¹ s⁻¹
Kd [6]: 0.101 nM and 0.0675 nM
koff [6]: 6.9e-05 s⁻¹ and 4.05e-05 s⁻¹
kon [6]: 685000 M⁻¹ s⁻¹ and 600000 M⁻¹ s⁻¹
B5: P1-063153 (41F11_HC_mutant: D31E/Y50W/S55E/Y100E) (antibody, V domains shown)
VH: B1 VH with D31E, Y50W, S56E, Y104E
VL: B1 VL with G64A, A91R
notes: Kabat positions; also called P1-063153-5

Kd [1]: 0.12 nM
kd improvement vs parent [1]: 294 fold
koff [1]: 0.00036 s⁻¹
kon [1]: 2.9e+06 M⁻¹ s⁻¹
KD ratio (pH 7.4/pH 6.0) [2]: 5.73
pH 6.0/7.4 KD [3]: 0.2
pH 6.0/7.4 kd [3]: 1.1
Kd [4]: 0.76 nM
kd improvement vs parent [4]: 2.7 fold
koff [4]: 0.00033 s⁻¹
kon [4]: 440000 M⁻¹ s⁻¹
Kd [7]: 0.21 nM
koff [7]: 0.00051 s⁻¹
kon [7]: 2.4e+06 M⁻¹ s⁻¹
Kd [8]: 0.72 nM
koff [8]: 0.00032 s⁻¹
kon [8]: 450000 M⁻¹ s⁻¹
Kd [5]: 0.172 nM
koff [5]: 0.000603 s⁻¹
kon [5]: 3.52e+06 M⁻¹ s⁻¹
Kd [6]: 0.986 nM
koff [6]: 0.000285 s⁻¹
kon [6]: 289000 M⁻¹ s⁻¹
B2: P1-065326 (41F11_VH_D31E/Y50W/S55E/L96E/Y100E VK_A64G) (antibody, V domains shown)
VH: B1 VH with D31E, Y50W, S56E, L100E, Y104E
VL: B1 VL with A91R
notes: Kabat positions; also called P1-065326-1
